Test system: peptide library, one residue held at a place counted from the S/T acceptor
Assay: relative phosphorylation of the sub-library (ratio to the mean residue at this position); higher = residue favoured
Outline: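 Purified recombinant kinases, either human or orthologue constructs, were incubated in 384-well plates with biotinylated degenerate peptide sub-libraries. Each sub-library fixed one residue at one position around a central Ser/Thr. Peptides at 50 μM and 50 μM ATP spiked with γ-32P-ATP were used for 90 min under kinase-specific conditions, and spots on streptavidin membranes were phosphorimaged and quantified by densitometry. Relative sub-library phosphorylation is expressed as a ratio to the mean residue at that position.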

Sequence of EEF2K, construct: Full length, human (O00418 whole entry, looked up): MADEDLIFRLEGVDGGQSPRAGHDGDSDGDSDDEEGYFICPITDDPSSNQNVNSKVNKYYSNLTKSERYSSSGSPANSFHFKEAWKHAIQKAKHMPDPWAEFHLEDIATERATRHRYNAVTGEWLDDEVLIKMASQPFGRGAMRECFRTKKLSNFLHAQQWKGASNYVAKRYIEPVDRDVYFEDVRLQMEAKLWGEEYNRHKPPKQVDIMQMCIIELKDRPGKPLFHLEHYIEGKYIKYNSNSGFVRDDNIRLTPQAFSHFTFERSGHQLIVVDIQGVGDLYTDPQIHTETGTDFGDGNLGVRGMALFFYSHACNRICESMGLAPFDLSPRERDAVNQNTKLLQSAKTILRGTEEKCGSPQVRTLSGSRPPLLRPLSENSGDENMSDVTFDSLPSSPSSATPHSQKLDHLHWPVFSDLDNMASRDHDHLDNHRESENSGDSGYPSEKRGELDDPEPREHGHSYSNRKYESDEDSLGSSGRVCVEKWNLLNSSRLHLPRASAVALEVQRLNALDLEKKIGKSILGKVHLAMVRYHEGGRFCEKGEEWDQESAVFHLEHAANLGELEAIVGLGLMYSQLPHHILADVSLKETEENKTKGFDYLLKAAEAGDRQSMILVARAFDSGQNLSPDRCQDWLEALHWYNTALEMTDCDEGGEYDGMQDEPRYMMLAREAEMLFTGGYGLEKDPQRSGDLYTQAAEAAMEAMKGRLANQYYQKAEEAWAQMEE
Sequence of EIF2AK3, construct: aa536-1116, human (Q9NZJ5 536-1116, looked up): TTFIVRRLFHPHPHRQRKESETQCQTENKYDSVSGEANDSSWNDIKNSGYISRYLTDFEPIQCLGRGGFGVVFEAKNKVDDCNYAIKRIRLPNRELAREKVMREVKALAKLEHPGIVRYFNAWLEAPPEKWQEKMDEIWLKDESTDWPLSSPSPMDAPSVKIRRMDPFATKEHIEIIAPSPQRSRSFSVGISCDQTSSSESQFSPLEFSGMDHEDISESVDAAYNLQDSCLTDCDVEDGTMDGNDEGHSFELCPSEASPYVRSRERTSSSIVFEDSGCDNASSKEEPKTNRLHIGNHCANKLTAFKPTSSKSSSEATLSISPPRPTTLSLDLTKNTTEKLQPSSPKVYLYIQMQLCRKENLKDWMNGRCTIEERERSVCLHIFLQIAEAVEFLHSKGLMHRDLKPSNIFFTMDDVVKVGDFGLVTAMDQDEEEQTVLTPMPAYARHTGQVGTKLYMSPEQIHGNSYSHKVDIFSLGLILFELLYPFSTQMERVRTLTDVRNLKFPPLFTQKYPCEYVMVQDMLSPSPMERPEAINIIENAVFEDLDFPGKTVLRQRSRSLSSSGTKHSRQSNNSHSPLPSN
Sequence of EIF2AK4, construct: aa191-1024, human (Q9P2K8 191-1024, looked up): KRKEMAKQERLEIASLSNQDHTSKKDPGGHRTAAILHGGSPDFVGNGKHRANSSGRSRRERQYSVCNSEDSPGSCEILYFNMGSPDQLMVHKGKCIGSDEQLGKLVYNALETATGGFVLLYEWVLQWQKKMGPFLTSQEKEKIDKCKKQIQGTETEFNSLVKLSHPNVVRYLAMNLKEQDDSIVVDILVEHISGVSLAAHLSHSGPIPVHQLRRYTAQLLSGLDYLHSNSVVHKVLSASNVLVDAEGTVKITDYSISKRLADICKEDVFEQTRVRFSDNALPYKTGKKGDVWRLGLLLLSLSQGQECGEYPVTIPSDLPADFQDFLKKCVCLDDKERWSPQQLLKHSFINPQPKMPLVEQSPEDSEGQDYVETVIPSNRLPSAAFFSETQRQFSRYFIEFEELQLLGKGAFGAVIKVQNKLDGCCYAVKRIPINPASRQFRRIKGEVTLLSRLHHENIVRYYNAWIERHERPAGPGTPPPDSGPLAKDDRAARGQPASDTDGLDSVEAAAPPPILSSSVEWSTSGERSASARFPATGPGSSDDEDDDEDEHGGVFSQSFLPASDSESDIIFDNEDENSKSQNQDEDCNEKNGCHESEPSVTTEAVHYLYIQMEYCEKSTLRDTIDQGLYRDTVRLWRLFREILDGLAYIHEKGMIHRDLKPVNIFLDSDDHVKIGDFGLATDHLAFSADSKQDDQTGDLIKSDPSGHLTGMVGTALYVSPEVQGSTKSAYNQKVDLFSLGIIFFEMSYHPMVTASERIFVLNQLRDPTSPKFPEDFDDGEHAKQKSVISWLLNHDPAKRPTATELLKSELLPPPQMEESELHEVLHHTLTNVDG

EEF2K, construct: Full length, human (from UniProt O00418)
relative phosphorylation
Conditions | at +1 | at +2 | at +3 | at +4 | at -1 | at -2 | at -3 | at -4 | at -5
A fixed | 1.46 | 0.748 | 0.733 | 0.852 | 1.3 | 1.1 | 0.971 | 1.01 | 1.08
D fixed | 0.421 | 0.233 | 0.609 | 0.742 | 1.24 | 1.24 | 1.14 | 0.912 | 0.748
E fixed | 1.5 | 0.236 | 0.618 | 0.644 | 1.25 | 1.91 | 1.13 | 0.794 | 0.718
F fixed | 0.935 | 1.16 | 0.583 | 0.718 | 0.881 | 0.935 | 0.971 | 1.61 | 1.17
G fixed | 0.447 | 0.773 | 0.679 | 1.08 | 1.14 | 1.13 | 1.32 | 1.18 | 1.07
H fixed | 0.864 | 1.31 | 0.766 | 1.28 | 1.08 | 0.929 | 0.971 | 0.878 | 0.873
I fixed | 1.4 | 0.647 | 0.417 | 0.651 | 0.598 | 0.739 | 0.945 | 0.932 | 1.02
K fixed | 0.992 | 2.31 | 3.25 | 2.03 | 0.978 | 0.631 | 0.975 | 1.11 | 1.24
L fixed | 1.09 | 0.565 | 0.477 | 0.643 | 0.93 | 0.751 | 0.975 | 1.04 | 0.892
M fixed | 1.13 | 0.909 | 0.504 | 0.799 | 1.05 | 0.848 | 0.978 | 1.17 | 1.1
N fixed | 0.551 | 0.695 | 0.918 | 1.08 | 1.04 | 0.655 | 1.09 | 0.901 | 0.975
P fixed | 0.253 | 0.361 | 0.337 | 0.96 | 0.96 | 1.57 | 1.08 | 0.889 | 1.03
Q fixed | 1.33 | 0.965 | 0.88 | 1.07 | 0.983 | 1.06 | 0.893 | 0.809 | 0.847
R fixed | 1.04 | 3.13 | 4.55 | 1.91 | 1.14 | 0.821 | 1.04 | 1.08 | 1.18
V fixed | 1.72 | 0.776 | 0.537 | 0.665 | 0.567 | 0.833 | 0.848 | 0.876 | 0.993
W fixed | 0.885 | 0.684 | 0.563 | 1.1 | 0.806 | 0.921 | 0.79 | 0.869 | 1.06
Y fixed | 0.989 | 1.49 | 0.581 | 0.762 | 1.06 | 0.918 | 0.886 | 0.939 | 1.02
pThr fixed | 0.777 | 0.601 | 0.648 | 1.05 | 0.619 | 0.91 | 1.27 | 0.982 | 1.29
pTyr fixed | 1.85 | 0.381 | 0.882 | 0.738 | 1 | 2.03 | 1.3 | 0.754 | 1.47

EIF2AK3, construct: aa536-1116, human (from UniProt Q9NZJ5)
relative phosphorylation
Conditions | at +1 | at +2 | at +3 | at +4 | at -1 | at -2 | at -3 | at -4 | at -5
A fixed | 0.888 | 1.08 | 0.836 | 0.863 | 0.745 | 0.615 | 1.02 | 1.02 | 1.07
D fixed | 0.348 | 0.419 | 0.491 | 0.684 | 0.71 | 3.5 | 1.61 | 1.18 | 1
E fixed | 0.676 | 0.277 | 0.555 | 0.678 | 0.62 | 3 | 1.23 | 0.94 | 0.712
F fixed | 1.08 | 0.921 | 1.09 | 0.92 | 1.21 | 1.22 | 1.04 | 1.05 | 1.32
G fixed | 1.02 | 1.14 | 1.89 | 1.14 | 0.458 | 0.748 | 0.825 | 1.05 | 0.984
H fixed | 0.898 | 1.28 | 1.31 | 1.12 | 1.21 | 0.712 | 0.911 | 1.08 | 1.17
I fixed | 1.05 | 0.748 | 0.703 | 0.838 | 1.2 | 0.527 | 0.819 | 0.774 | 0.837
K fixed | 1.12 | 1.06 | 1.09 | 1.28 | 1.19 | 0.472 | 0.798 | 0.942 | 0.996
L fixed | 0.907 | 0.609 | 0.8 | 0.822 | 1.11 | 0.877 | 1.06 | 0.79 | 1.01
M fixed | 1.6 | 0.823 | 0.814 | 0.871 | 1.22 | 0.942 | 1.06 | 0.956 | 0.9
N fixed | 0.86 | 1.12 | 0.821 | 0.95 | 0.879 | 0.698 | 0.856 | 0.788 | 0.788
P fixed | 0.245 | 0.662 | 1.48 | 1.24 | 0.582 | 0.429 | 0.749 | 0.871 | 0.837
Q fixed | 1.43 | 0.719 | 0.778 | 0.865 | 0.837 | 0.615 | 0.767 | 0.751 | 0.713
R fixed | 2.11 | 2.2 | 1.43 | 1.53 | 1.34 | 0.576 | 0.934 | 1.1 | 1.06
V fixed | 0.92 | 0.709 | 0.664 | 0.78 | 1.25 | 0.544 | 0.839 | 0.825 | 0.769
W fixed | 0.809 | 1.44 | 1.25 | 1.3 | 1.07 | 0.892 | 1.42 | 1.66 | 1.49
Y fixed | 1.04 | 1.79 | 0.999 | 1.12 | 1.36 | 0.629 | 1.06 | 1.22 | 1.34
pThr fixed | 0.47 | 0.307 | 0.402 | 0.715 | 0.478 | 1.31 | 1.05 | 0.722 | 0.848
pTyr fixed | 0.828 | 0.387 | 0.715 | 0.796 | 0.726 | 0.527 | 1.05 | 0.682 | 0.847

EIF2AK4, construct: aa191-1024, human (from UniProt Q9P2K8)
relative phosphorylation
Conditions | at +1 | at +2 | at +3 | at +4 | at -1 | at -2 | at -3 | at -4 | at -5
A fixed | 0.622 | 0.832 | 0.837 | 0.891 | 0.732 | 0.958 | 0.968 | 1.01 | 1.07
D fixed | 0.335 | 1.1 | 0.504 | 0.75 | 1.22 | 2.28 | 1.62 | 1.47 | 1.12
E fixed | 0.537 | 0.351 | 0.539 | 0.788 | 0.894 | 2.2 | 1.68 | 1.16 | 1.06
F fixed | 2.06 | 0.645 | 0.948 | 0.945 | 0.836 | 1.18 | 0.891 | 0.86 | 1.07
G fixed | 0.757 | 0.811 | 2.04 | 1.16 | 1.03 | 1.02 | 0.924 | 1.1 | 1.06
H fixed | 1.04 | 1.8 | 1.02 | 0.969 | 1.12 | 0.964 | 0.901 | 1.18 | 1.17
I fixed | 0.858 | 0.689 | 0.699 | 0.896 | 0.635 | 0.533 | 0.76 | 0.77 | 0.823
K fixed | 0.724 | 0.717 | 1.11 | 1.08 | 0.78 | 0.555 | 0.695 | 0.945 | 1.04
L fixed | 0.621 | 0.631 | 0.75 | 0.976 | 1.15 | 0.693 | 1.02 | 0.829 | 0.726
M fixed | 1.68 | 0.59 | 0.826 | 0.973 | 1.11 | 1.09 | 1.08 | 0.846 | 0.825
N fixed | 0.933 | 0.841 | 0.829 | 0.867 | 1.38 | 1.21 | 0.959 | 1.04 | 0.923
P fixed | 0.162 | 0.475 | 1.9 | 1.07 | 0.629 | 0.643 | 0.699 | 0.825 | 0.824
Q fixed | 1.28 | 0.611 | 0.774 | 0.811 | 1.26 | 0.968 | 0.976 | 0.997 | 0.881
R fixed | 1.03 | 1.98 | 1.28 | 1.2 | 1.08 | 0.654 | 0.844 | 0.882 | 1.26
V fixed | 0.996 | 0.773 | 0.74 | 0.849 | 0.961 | 0.52 | 0.727 | 0.838 | 0.926
W fixed | 1.24 | 1.29 | 0.998 | 1.62 | 1.04 | 0.698 | 1.16 | 1.25 | 1.25
Y fixed | 2.13 | 2.85 | 1.2 | 1.16 | 1.13 | 0.828 | 1.1 | 1 | 0.975
pThr fixed | 0.715 | 0.592 | 0.686 | 0.736 | 0.803 | 1.16 | 0.969 | 1.03 | 0.724
pTyr fixed | 0.656 | 0.789 | 0.83 | 1.55 | 1.43 | 0.652 | 1.01 | 0.867 | 0.881

Source: the supplement of paper PMC9876800
